Results from patent US20200270588A1, “GLUCOSYL TRANSFERASE POLYPEPTIDES AND METHODS OF USE” (Syngenta Participations AG, priority 2017, published 2020).
Residue numbers refer to the chain shown, from its start. Numbers in names are those of the source.

B1: I153M: bx9 SEQ ID NO:1 mutant (protein)
chain: MASSRTGAGAGGRVVVFPFPFQGHFNPVMRLARALHARGLAITVFHSGALDPADYPADYRFVPVTVEADPKLLASEDIAAIVTTLNASCDAPFRARLSALLAAEGRDSVRCVFTDVSWNAVLTASSDLGVPALGMMTASAASLRDYMAYRTLMDKGYLPVKEERKEDPVPELPPYLVKDLLRVDTSDLEEFAELLARTVTAARRASGLIFNTFPLIETDTLAEIHKALSVPVFAVAPLNKLVPTATASLHGVVQADRGCLQWLDTQQPGSVLYVSFGSMAAMDPHEFVELAWGLADSKRPFVWVVRPNLIRGFESGALPDGVEDEVRGRGIVVAWAPQEEVLAHPAVGGFLTHNGWNSTVEAISEGVPMVCCPRHGDQFGNMRYVCDVWKVGTELVGEQLERGQVKAAIDRLFGTKEGEEIKERMKEFKIAAAKGIGIGVDVDETASPRTDLTDLVDLIKSF
modifications: Zea mays
B2: I153Y: bx9 SEQ ID NO:1 mutant (protein)
chain: B1 chain with M153Y
modifications: Zea mays
B3: V199N: bx9 SEQ ID NO:1 mutant (protein)
chain: B1 chain with M153I, V199N
modifications: Zea mays
B4: L194G: bx9 SEQ ID NO:1 mutant (protein)
chain: B1 chain with M153I, L194G
modifications: Zea mays
B5: L195I: bx9 SEQ ID NO:1 mutant (protein)
chain: B1 chain with M153I, L195I
modifications: Zea mays
B6: L194Q: bx9 SEQ ID NO:1 mutant (protein)
chain: B1 chain with M153I, L194Q
modifications: Zea mays
B7: T220G: bx9 SEQ ID NO:1 mutant (protein)
chain: B1 chain with M153I, T220G
modifications: Zea mays
B8: A202L: bx9 SEQ ID NO:1 mutant (protein)
chain: B1 chain with M153I, A202L
modifications: Zea mays
B9: L194C: bx9 SEQ ID NO:1 mutant (protein)
chain: B1 chain with M153I, L194C
modifications: Zea mays
B10: L194V: bx9 SEQ ID NO:1 mutant (protein)
chain: B1 chain with M153I, L194V
modifications: Zea mays
B11: A202M: bx9 SEQ ID NO:1 mutant (protein)
chain: B1 chain with M153I, A202M
modifications: Zea mays
B12: A202F: bx9 SEQ ID NO:1 mutant (protein)
chain: B1 chain with M153I, A202F
modifications: Zea mays
B13: T220Q: bx9 SEQ ID NO:1 mutant (protein)
chain: B1 chain with M153I, T220Q
modifications: Zea mays
B14: A202C: bx9 SEQ ID NO:1 mutant (protein)
chain: B1 chain with M153I, A202C
modifications: Zea mays
B15: L194N: bx9 SEQ ID NO:1 mutant (protein)
chain: B1 chain with M153I, L194N
modifications: Zea mays
B16: T198V: bx9 SEQ ID NO:1 mutant (protein)
chain: B1 chain with M153I, T198V
modifications: Zea mays
B17: L194T: bx9 SEQ ID NO:1 mutant (protein)
chain: B1 chain with M153I, L194T
modifications: Zea mays
B18: I153R: bx9 SEQ ID NO:1 mutant (protein)
chain: B1 chain with M153R
modifications: Zea mays
B19: F210M: bx9 SEQ ID NO:1 mutant (protein)
chain: B1 chain with M153I, F210M
modifications: Zea mays
B20: L194I: bx9 SEQ ID NO:1 mutant (protein)
chain: B1 chain with M153I, L194I
modifications: Zea mays
B21: L194D: bx9 SEQ ID NO:1 mutant (protein)
chain: B1 chain with M153I, L194D
modifications: Zea mays
B22: I153Q: bx9 SEQ ID NO:1 mutant (protein)
chain: B1 chain with M153Q
modifications: Zea mays
B23: A202V: bx9 SEQ ID NO:1 mutant (protein)
chain: B1 chain with M153I, A202V
modifications: Zea mays
B24: I153F: bx9 SEQ ID NO:1 mutant (protein)
chain: B1 chain with M153F
modifications: Zea mays
B25: L194E: bx9 SEQ ID NO:1 mutant (protein)
chain: B1 chain with M153I, L194E
modifications: Zea mays
B26: F210W: bx9 SEQ ID NO:1 mutant (protein)
chain: B1 chain with M153I, F210W
modifications: Zea mays
B27: L194A: bx9 SEQ ID NO:1 mutant (protein)
chain: B1 chain with M153I, L194A
modifications: Zea mays

Experiment: UDP luminescence plate assay of E. coli extracts, saturation mutants of SEQ ID NO: 1, herbicide V
Type: biochemical, Zea mays
Details: improvement factor relative to w/t bx9 = 1.0, rounded to nearest 0.5; extract activity basis; compound V
Protocol: Competent BL21 (DE3) cells are transformed as in the foregoing examples and, following seed culturing, grown and autoinduced in plates in a 0.5-1 ml volume of autoinduction medium containing 50 ug/ml kanamycin. Plates are incubated at 37° C. and shaken at 900 rpm. Growth is monitored by taking 20 ul aliquots, diluting 10 fold into flat-bottomed 96 well microtiter plates and reading OD600n at t=0, 1, 2, 2½ and 3 hours if necessary. At a (corrected) OD600 nm˜0.2, plates are transferred to 20° C. and shaken overnight at 900 rpm in a Jencons VWR plate incubator. After ˜18-20 h the final OD600 readings are recorded and the plates centrifuged at 4600 rpm (bench top centrifuge) for 10 min at 4° C. The supernatant is discarded and the pellets then washed with 0.25 ml PBS by repeat centrifugation and removal of supernatant before freezing cell pellets at −80° C. To prepare extracts, plates are allowed to thaw for 30 min and then pellets are resuspended in 0.25 ml of a suitable lysis buffer (for example—50 mM Tris HCL buffer at pH 8.0, 5% glycerol containing 50 mM NaCl and lysonase) mixed, incubated at room temperature for a sufficient time for lysis to be near complete and then centrifuged to remove cell debris and 100 ul of supernatant extract removed to a 96 well V-shaped well plate and stored on ice prior to assay.
Optionally plate assays are stopped with brief heating to 95 C before returning to ice and addition of UDP-Glo detection reagent followed by incubation at lab temperature. […] In addition a UDP standard curve is run alongside each set of plate tests.
Making use of the ELISA assay it is then possible to calculate a specific activity (e.g. in Relative Luminescence Units (RLU)/min/ug bx protein) based upon the amount of each mutant bx9 polypeptide expressed in each well. […] The specific activity of the various test mutant extracts on the same plate are then expressed as a fraction of the specific activity of the w/t bx9 and thus the ‘improvement factor’ versus the w/t expressed as a decimal where, for example, ‘0.5’ means half the specific activity of the wild type and 2.0 means twice the specific activity of the wild type. However, as will be readily apparent to the skilled man, particularly in cases where the UDP assay signal was low (with poor signal to noise versus the background) and/or the ELISA measurement of bx protein also low such a method is prone to generate spurious high specific activity numbers and uncertain numbers.

Molecule | Preferred amino acid substitutions and (IF) based on RLU/min/ul | Most Preferred amino acid substitutions and (IF) based on RLU/min/ul
B1 | T,C,K,V,L,M,Y(1.0); | 
B2 | T,C,K,V,L,M,Y(1.0); | 
B3 | M,N(1.0) | 
B4 | 1.0 | 
B5 | I(1.0) | 
B6 | 1.5 | 
B7 | G,Q,D,V(1.0) | 
B8 | T,I,V,L,F(1.5) | 
B9 |  | C,N,V(3.0)
B10 |  | C,N,V(3.0)
B11 | S,I,C,M(1.0) | 
B12 | T,I,V,L,F(1.5) | 
B13 | G,Q,D,V(1.0) | 
B14 | S,I,C,M(1.0) | 
B15 |  | C,N,V(3.0)
B16 |  | V(2.0)
B17 | 1.5 | 
B18 | Q,R,F(1.5) | 
B19 | M,W(1.0) | 
B20 |  | 2.0
B21 | 1.0 | 
B22 | Q,R,F(1.5) | 
B23 | T,I,V,L,F(1.5) | 
B24 | Q,R,F(1.5) | 
B25 | 1.0 | 
B26 | M,W(1.0) | 
B27 |  | 2.5
